Laboratory results from the nanobody polyreactivity screen of Harvey et al. (2022).

Assay: yeast display, Sf9 membrane polyspecificity reagent, FACS + sequencing; frameworks hold sequencing errors
Procedure, shortened: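 A nanobody's polyreactivity label depends on the gate it was sorted from. Yeast display cells were stained with 10% biotinylated, detergent-solubilized Sf9 membrane reagent for 1 hour at 4 °C, enriched on streptavidin microbeads and sorted by FACS. The low and high (top ~1%) gates were set on anti-HA fluorescence for expression and streptavidin fluorescence for reagent binding.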

Sequence	polyreactivity (PSR sort gate)
EEELVESGGGIVQAGGSLRLSCAASGFIFGYNAMGWYRQAPGKERELVAAISSGDDTNYADSVKGRFTISRDNAKNTVYLQMNSLKPEDTAVYYCAAEVWTAFTLGSYWSVVDYDYWGQGTQVSVSS	low polyreactivity
EEELVESGGGLVQAGGSLRLSCAASGSTFLVYAMGWYRQAPGKERELVAVITSGGRTNYADSVKGRFTISRDNAKNTVYLQMNSLKPEDTAVYYCAVDGRSVPAWWPRFDYWGQGTQVTVSS	low polyreactivity
EVQLVESGGGLDQAGGSLRLICAASARTFIWNAMGWYRQEPGKERDLVAAITRNGDSTYYADSVKGRFTISRDNAKNTVYLQMNRLKPEDTAVYYCAAYSRVFVYRTVGNYGWMNYWGQGTQVTVSS	high polyreactivity
EVQLVESGGGLVQAGGSLRLSCAASGFIFGYNAMGWYRQAPGKERDLVAAISWSGGSTYYADSVKGRYTISRDNAKNTVYLQMNSLKPEDTAVYYCNRGYTAQVFTEFDYWGQGTLVTVSS	low polyreactivity
EVQLVESGGGLVQPGGSLRLSCAASGYIYSRYRMGWYRQAPGKGREFVAAISGGSSTNYADSVKGRFTISRDNSKNTVYLQMNSLRAEDTAVYYCAAYQIDSDPRVYWGQGTQVTVSS	low polyreactivity
EVQLVESGGGLVQPGGSLRLSCAASGYIYSRYRMGWYRQAPGKGREFVAAISGGSSTNYADSVKGRFTISRDNSKYTVYLQMNSLRADDTALYYCAAYKIDSDPRVYWGQGTQVTVSS	low polyreactivity
HAQLQESGGCLVQAGGSLRPSCAASGSIFRVSGMGWYRRAPGKERELVASIGFGSITYYADRVKGRFTISRDNAINTVYLQMNSLKPEDTAVYYCAVQVQDESWLDYWGQGTQVTVSC	low polyreactivity
HDQLVESGGGLVQAGGSLRLSCAASGSTFTINVMGWYRQAPGKERELVAAINGGGRTNYADSVKGRFTISRDNAKNTVYVQMNILKPEDTAVYYCAADGLSNVRQMDYWGQGTQVTVSS	low polyreactivity
HFQLVESGGGLVQAGGSLRLSCAASVFIILINVMGWSRQAPGKERELVAVITGGGTTNYADSVKGRFTISRDNANNTVYLQMNSLKPVDTAGYYCAVDAGAGDNDYWGQGTQVTVSS	low polyreactivity
HVHLVESGGGLVQAGGSLRLSCAASGRTFSRYAMGWYRQAPGKERELVAAITSGGSTNYADSVKGRFTISRDNAKNTVYLQKNSLKPEDTAVYYCAKRYFRSSRDGLGTTHPYDYWGQGTQVTVSS	high polyreactivity
HVHLVESGGGLVQAGGSLRLSCAASGRTFSTYAMGRYRQAPGKERELVATIRVSGSSTYYADSVKGRFTISRDNAKNTVYLQMNSLKQEDTEVYYCANRGLSRYYDYYYWGQGTQVTVSS	high polyreactivity
HVHLVESGGGLVQAGGSLRLSCASSGPTFGWNVMGWYRQAPGKERELVAAISGSGGSTYYADSVKGRFTISRDNAKNTVYSQMNSLKPEDTAVYYCAALYGPGREYDYWGQGTQVSVSS	low polyreactivity
HVHLVESGGGLVQAGGSLSLICAASGFIFRYYAMGWYRQAPGTEREVVAAITRGGSTYYADSVKGRFTISRDNAKNTVYLQMNSLKPVATAVYYCAARLYTQYYYWGQGTQVTVSS	high polyreactivity
HVLLVESGGGLVQAGGSLRLSFAATAFTFTYYTMGSYRQAPGKETELVAAITSSGGSTYYADSVMGRFTISRDNANNTVYLQMNSLKPEDTAVYYCAASRYSTRFGARVYWGQVTQVTVSS	high polyreactivity
HVQHVESGGGLVHAGGSLRLRCAASGSIFVYYAMGWYRQAPGKERELVAAISGGGGRKYYADSVKGRFTISRDNANNTVYLQMNSLKPDDTAVYYCAARRATYPGGFYSWGQGSQVTVSS	high polyreactivity
HVQIVESGGGLVQAGGSLRLSCAASGRIFVPYVMGWYRQAPGKERELVASISDSDTSTYYADSVKGRFTISRDNAKNTVYLQINSLKPEDTAVYYCNVDNWGQGTQVTVSS	low polyreactivity
HVQLEESGGGLDQAGGSLRLSCAASGITFVRNAMGWYRQAPGKERELVAVITSGGGTYYADSVKGRFTISRDNAKNTVYLQMNSLKPEDTAVYYWAGDIHVNGSGYWGKGTQVTVSS	low polyreactivity
HVQLQESGGGLMQAGGSQRLSCAASGSISYNSDMGWYRQAPGKEREFVAGIGYGTTTNYADSVKGRFTTSRDNAKNTVYLQMISMKPEDTEVYYCAAYQGNGYEFYYWGQGTQVTVRS	low polyreactivity
HVQLVDSGGGLVQAGGSLRLTCAASGNIFVPYAMGWYRQAPGKERELVAAINGGGSTNYADSLKGRFTISRDNAKNTVYLQMNSLKPEDTAVYYCAAVWYFLSLWYDYWGQGTQVTVSS	high polyreactivity
HVQLVDSSGRVVQARCSLRLSCAASGSTFHDNAMGWYRQAPGKDRDLEAAISSGGRTNYADSVKGRFTISRDNAKNTVYLQMNCLKPEDTAVYYCAASFRRWYFYARHDYGYWGLGTQVTVSS	low polyreactivity
HVQLVESAGGLVQAGGSLRLSCAASGFIFGYYAMGWYRQAPGKERELVAAINYNDDSTYYADSVKGRFTISRDNAKNTVYLQMNSLKPEDTAVYYCAVRRWDAGDYWGQGTQVTVSS	low polyreactivity
HVQLVESAGGLVQAGGSLRVSCAASGRTFVENAMGWYRQAPGKERELVAAITYRGGRTFYADSVKGRFTISLDNAKNTVYLQMNSLTPEETAVYYCNAVRRTGGHGDYWGHGTQVTVSS	high polyreactivity

Sequence	polyreactivity (PSR sort gate)
HVQLVESAGGLVQARGSLRLSCAASGSIFVTYAMGWYRQARGKERELVATITYSGGSTSYADSVKGRFTISRDNAKITVYLQMNSLKPDDTAVYFCAADLDSDFDYWGQGTQVTVSS	low polyreactivity
HVQLVESGGGLVQAGGSLRESCAASGRTFDDIAMGRYRQAPGKERELVAAINWSGASTYYADSVKGRFTISRDNAKNTVYLQMNSLKPEDTAVYYCAAVFWKSDSAYYEYGYWGQGTQVTVSS	low polyreactivity
HVQLVESGGGLVQAGGSLRFSCAASGFIFTNYAMGWYRQAPGTERELVAAISFSGSSTYYADSVKGRFTISRDNAKNTVYLQMNSLNPEDTAVYYCAVDGVPSSFSHDYWGQGTKVTVSS	low polyreactivity
HVQLVESGGGLVQAGGSLRISCAASGLIFVFYAMGWYRQAPGKERELVAAISTSGDRTYYADSVKGRFTISRDNAKNTVYLQMISLKPEDTAVYFCNARRLGYRSGHPGYYWGQGTQVTVSS	high polyreactivity
HVQLVESGGGLVQAGGSLRISCAASGRTFGHYAMGWNRQAPGKQRELVAVISGRNGDSTYYADSVKGRFTISRDNAKNTVYLQMNSLKPVYTAVYYCAAYKPWEYDYWGQGTEVTVSS	low polyreactivity
HVQLVESGGGLVQAGGSLRLRCAASGFTFYYNAMGWSRQAPGKERELVAAISTRGGNTYYADSVKGRFTISRDYAKNTVYLQRNSLKPEATAVYYCARIIRREGRYDYWGHGTQVTVSS	high polyreactivity
HVQLVESGGGLVQAGGSLRLSCAASGFTFANNAMGWYRQAPRKERELVAAISRSGGSTYYADSVKGRFTISRDNAKNTVYLQMNSLKPEDTAVYYCAVYNRPYKEYGYNYWGQGTQVTVSS	high polyreactivity
HVQLVESGGGLVQAGGSLRLSCAASGFTFVPYAMGWYRQAPGKERELVAAISSGGSTYYADSVKGRFTISRDNAKNTVYLQMNSLKPEDTAVYYCATTGWYRYGRKFYYWGQGTQVTVSS	high polyreactivity
HVQLVESGGGLVQAGGSLRLSCAASGGISIDNVMGWYRQATGKERELVAAISKSGGRTFYADSVKGRFTISRDNAKNTVYLQMNSLKPEDTAVYYCAKLYISKPYWYEHEYWGQGTQVTVSS	high polyreactivity
HVQLVESGGGLVQAGGSLRLSCAASGLTFAQYAMGWYRQAPGNERALVAAITGSGGSTYYADSVKGRFTISRDNAKNTVYLQLNSLKPEDTAVYYCNKLFYRWRIVDKYYYWGQGTQVTVSS	high polyreactivity
HVQLVESGGGLVQAGGSLRLSCAASGNIFVRYAMGWYRPAPGKERELVAAISSSGGRTYYADSVKGRFTISRDNAKNTVYLQMNSLKPEDTAVYYCATGRPSHNRYDYWGQGTQVTVSS	high polyreactivity
HVQLVESGGGLVQAGGSLRLSCAASGRIFGRNAMGWYRQAPGKERELVAAISSGGSTYYADSVKGRLTISRDNAKNTVYLQMNSLKPEDTAVYYFAVRGSYYNGGRAFESWGQGTQVTVSS	high polyreactivity
HVQLVESGGGLVQAGGSLRLSCAASGRIFPSNTMGWYRQAPGKERELVAAITRGDRTNYADSVKGRFTISRDNAKNTVYLQMNSLKPVDTAVYYCNARWGLPFGSGYYYWGQGTQVTVSS	low polyreactivity
HVQLVESGGGLVQAGGSLRLSCAASGRIFVDYVMGWYRQAPGKERELVARITWIGGNTYYADSVKGRFTISRDNAKNTVYFQMNCLKPEDTAVYYSNAGLTLLSRRHEGWYGDDYWGPGTQVTVSS	low polyreactivity
HVQLVESGGGLVQAGGSLRLSCAASGRIFVVYTMGWYRQAPGKERELVASIRGSGDSTNYADSVKGRFTLSRDNAKNTVYLQMNRLKPEDTAVYYCAADLPWSRRYSYRYGYWGQGTQVTVSS	low polyreactivity
HVQLVESGGGLVQAGGSLRLSCAASGRISIRNAMGWYRQAPGKERELGAAISRSGGSTYYADSVKGRFTISRDNAKNTVYIQMNSLKPEDTAVYYCAASFWSSGQWYDYWGQGTQVTVSS	high polyreactivity
HVQLVESGGGLVQAGGSLRLSCAASGRSLSDYAMGWYRQAPGKERELVATITSGDSTNYADSVKGRFTISRDNEKNTVYLQMNSLKPEDTEVYYCNADRFADYDYWGQGTQVTVSS	low polyreactivity
HVQLVESGGGLVQAGGSLRLSCAASGRTFLVYAMGWDRQAPGKERELVADITRSGGRTYYADSVKGRITISRDNAKNTVYLQINSLKPEDTAVYYCAARPYFVGPIEYDYWGQGTQVTVSS	high polyreactivity
HVQLVESGGGLVQAGGSLRLSCAASGRTFYFNTMGWYRQAPGKEMELVASISYGSNTNYADSVKGRFTISRDNAKNTVYLQMNSLKPEDTAVYFCAVRWVYRTSSWGARYGRYDYWGQGTQVTVSS	high polyreactivity
HVQLVESGGGLVQAGGSLRLSCAASGRTLYNNAMGWYRQAPGKERELVAAISSRGGSTRYADSVKGRFTISRDNAKNTVYLQMNSLKPEDTAVYSGAKRSINRDGDYWGQGTQVTVSS	high polyreactivity
HVQLVESGGGLVQAGGSLRLSCAASGSIFGHYAMGWYRQATGKERELVAAISSGGSTNYADSVKGRFTISRDNAKNTVYLQMNSLIPEDTAVYYCAPTSWWPPGYDYWGQGTQVTVSS	high polyreactivity
